Measurements reported in US20240158497A1 (published 2024).

T1: Macaca Fascicularis GP130 extracellular domain expressed with a C-terminal myc-myc-hexahistidine tag (Macaca fascicularis, UniProt P40189 23-619 (human entry))
T1 construct: also called mfGP130-MMH; mfGP130-mmH
T1 chain: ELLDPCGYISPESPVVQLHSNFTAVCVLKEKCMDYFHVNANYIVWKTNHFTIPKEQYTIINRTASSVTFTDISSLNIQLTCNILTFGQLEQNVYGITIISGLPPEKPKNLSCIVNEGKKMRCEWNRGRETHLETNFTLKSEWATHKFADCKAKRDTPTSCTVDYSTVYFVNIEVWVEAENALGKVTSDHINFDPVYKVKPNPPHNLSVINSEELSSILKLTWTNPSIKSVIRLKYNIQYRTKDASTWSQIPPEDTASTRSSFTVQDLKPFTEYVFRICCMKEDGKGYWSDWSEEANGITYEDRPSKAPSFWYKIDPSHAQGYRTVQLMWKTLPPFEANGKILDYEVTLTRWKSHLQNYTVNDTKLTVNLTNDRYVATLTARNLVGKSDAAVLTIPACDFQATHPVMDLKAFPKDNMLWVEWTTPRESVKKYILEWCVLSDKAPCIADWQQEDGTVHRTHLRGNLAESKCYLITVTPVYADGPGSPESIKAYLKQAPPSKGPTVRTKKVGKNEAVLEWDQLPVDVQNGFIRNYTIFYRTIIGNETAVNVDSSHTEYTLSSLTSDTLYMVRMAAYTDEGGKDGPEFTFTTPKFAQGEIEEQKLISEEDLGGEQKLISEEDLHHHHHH


Tests used:
[1] = target: T2, Macaca Fascicularis LEPR extracellular domain expressed with a C-terminal myc-myc-hexahistidine tag (Macaca fascicularis, UniProt Q9MYL0 22-837 (rhesus entry)); assay: SPR Biacore 4000, bsAb captured by anti-human Fc, 37 C
T2 construct: Monomeric reagent; the whole entry is the construct with its tag; also called mfLEPR-MMH
Procedure, shortened: (§1)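 Anti-hFc-captured bispecific antibodies received 3-fold serial dilutions of LEPR or GP130 (100 nM–3.7 nM) in HBS-ET, pH 7.4, injected for 4 min with 10 min dissociation at 25 °C or 37 °C. ka and kd came from a 1:1 binding model with mass transport limitation, and KD and t½ were calculated from these rate constants.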

[2] = target: T3, human LEPR extracellular domain expressed with a C-terminal myc-myc-hexahistidine tag (human, UniProt P48357 22-839); assay: as above
T3 construct: Monomeric reagent; the whole entry is the construct with its tag; also called hLEPR-MMH; hLEPR.mmh
Procedure, shortened: as §1

[3] = target: T2, Macaca Fascicularis LEPR extracellular …; assay: SPR Biacore 4000, bsAb captured by anti-human Fc, 25 C
Procedure, shortened: as §1

[4] = target: T3, human LEPR extracellular domain …; assay: as above
Procedure, shortened: as §1

[5] = target: T4, human GP130 extracellular domain expressed with a C-terminal myc-myc-hexahistidine tag (human, UniProt P40189 23-619); assay: SPR, bsAb captured by anti-hFc, 25C
T4 construct: also called hGP130-MMH; hGP130-mmH
Protocol: (§2) Equilibrium dissociation constants (KD values) for LEPR and GP130 binding to purified anti-LEPR/GP130 bispecific antibodies were determined using a real-time surface plasmon resonance biosensor using a Biacore 4000 instrument. All binding studies were performed in 10 mM HEPES, 150 mM NaCl, 3 mM EDTA, and 0.05% v/v Surfactant Tween-20, pH 7.4 (HBS-ET) running buffer at 25° C. and 37° C. The Biacore sensor surface was first derivatized by amine coupling with a monoclonal mouse anti-human Fc antibody (GE, #BR-1008-39) to capture anti-LEPR/GP130 bispecific antibodies. […] Different concentrations of LEPR or GP130 reagents were first prepared in HBS-ET running buffer (100 nM-3.7 nM; 3-fold serial dilution) and were injected over anti-human Fc captured anti-LEPR/GP130 bispecific antibody surface for 4 minutes at a flow rate of 30 μL/minute, while the dissociation of bispecific antibody bound LEPR or GP130 reagent was monitored for 10 minutes in HBS-ET running buffer. Kinetic association (kₐ) and dissociation (kd) rate constants were determined by fitting the real-time binding sensorgrams to a 1:1 binding model with mass transport limitation using Scrubber 2.0c curve-fitting software. Binding dissociation equilibrium constants (KD) and dissociative half-lives (t ½) were calculated from the kinetic rate constants as: […]

[6] = target: T1, Macaca Fascicularis GP130 extracellular …; assay: SPR, bsAb captured by anti-hFc, 25C
Protocol: as §2

[7] = target: T4, human GP130 extracellular domain …; assay: SPR, bsAb captured by anti-hFc, 37C
Protocol: as §2

[8] = target: T1, Macaca Fascicularis GP130 extracellular …; assay: SPR, bsAb captured by anti-hFc, 37C
Protocol: as §2

100 nM mfLEPR-MMH Bound (RU) [1] [RU]	100 nM hLEPR-MMH Bound (RU) [2] [RU]	Kd [2] [nM]	koff [2] [s⁻¹]	kon [2] [M⁻¹ s⁻¹]	t½ [2] [s]	100 nM mfLEPR-MMH Bound (RU) [3] [RU]	100 nM hLEPR-MMH Bound (RU) [4] [RU]	Kd [4] [nM]	koff [4] [s⁻¹]	kon [4] [M⁻¹ s⁻¹]	t½ [4] [h]	Kd [3] [nM]	koff [3] [s⁻¹]	kon [3] [M⁻¹ s⁻¹]	100 nM hGP130-MMH Bound (RU) [5] [RU]	100 nM mfGP130-MMH Bound (RU) [6] [RU]	100 nM hGP130-MMH Bound (RU) [7] [RU]	100 nM mfGP130-MMH Bound (RU) [8] [RU]	Binder	other results
7	81	19.1	0.000625	32800	1080	7	57	7.85	0.000162	20700	1.18								bsAb19757D (bispecific antibody, V domains shown, common light chain) VH 1: EVQLVESGGGLVQPGGSLRLSCVASGFTFNKYDMHWVRQTTGKGLEWVSGIDTDGDTYYPGSVKGRFTISRENAENSLYLQMNGLRVGDTAVYYCARWPWSGFYGAFDIWGQGTMVTVSS VH 2: EVQLVESGGGVVRPGGSLRLSCTASGFTFDDYGMSWVRQAPGKGLEWVSGINWNGGRTEYADAVKGRFIISRDNAKNSLYLQMNSLRAEDTALYFCARTELRWDYWGQGTLVTVSS VL: not shown	
5	73	20.6	0.000663	32300	1020	9	54	10.3	0.000163	15900	1.18	583	0.0225	38600					bsAb19758D (bispecific antibody, V domains shown, common light chain) VH 1: EVQLVESGGGLVQPGGSLRLSCVASGFTFNKYDMHWVRQTTGKGLEWVSGIDTDGDTYYPGSVKGRFTISRENAENSLYLQMNGLRVGDTAVYYCARWPWSGFYGAFDIWGQGTMVTVSS VH 2: EVQLVESGGGLVQSGGSLRLSCAASGFTFSRYEMNWVRQAPGKGLEWVAYISNTGTTRDYSDSVKGRFTISRDNAKNSLYLQMSSLRVEDTAVYYCVREKFSGTSDWFDPWGQGTLVTVSS VL: not shown	t½ [3]: 30 s
															15	15	15	15	bsAb19141D (bispecific antibody, V domains shown, LEPR x GP130 bispecific with common light chain) VH 1: QVQLVESGGGVVQPGRSLRLSCTASGFTFSSYAMYWVRQAPGKGLEWVSVIYYDGSYKYYADSVKGRFTISRDNSKNTLYLQMDSLRAEDTAVYYCASYNWNYWYFDFWGRGTLVTVSS VH 2: EVQLVESGGGVVRPGGSLRLSCTASGFTFDDYGMSWVRQAPGKGLEWVSGINWNGGRTEYADAVKGRFIISRDNAKNSLYLQMNSLRAEDTALYFCARTELRWDYWGQGTLVTVSS VL: not shown	Kd [5]: 219 nM; koff [5]: 0.0232 s⁻¹; kon [5]: 106000 M⁻¹ s⁻¹; t½ [5]: 30 s; Kd [6]: 184 nM; koff [6]: 0.0207 s⁻¹; kon [6]: 112000 M⁻¹ s⁻¹; t½ [6]: 36 s; Kd [7]: 347 nM; koff [7]: 0.0621 s⁻¹; kon [7]: 179000 M⁻¹ s⁻¹; t½ [7]: 12 s; Kd [8]: 212 nM; koff [8]: 0.0513 s⁻¹; kon [8]: 242000 M⁻¹ s⁻¹; t½ [8]: 12 s
9	5	726	0.0131	18000	54	12		106	0.00372	35100	0.0517	83.4	0.00482	57900					bsAb21236D (bispecific antibody, V domains shown, common light chain; also called H4H21236D) VH 1: QVQLQESGPGLVKPSQTLSLTCTVSGGSISSGGDYWSWIRQLPGKGLEWIGYIYYSGSAYYNPSLKSRGTISIDTSKNQFSLKLTSVTAADTAVYFCVKLRFLEWFLGGWFGPWGQGTLVTVSS VH 2: QVQLVESGGGLVKPGGSLRLSCAASGFTFSDYYMTWIRQTPGKGLDWVSYISSSGTNKYNADSVKGRFTISRDNAKNSLYLQMNSLRAEDTAVYYCVRDPPWGMDVWGQGTTVTVSS VL: not shown	Kd [1]: 284 nM; koff [1]: 0.0176 s⁻¹; kon [1]: 61900 M⁻¹ s⁻¹; t½ [1]: 42 s; t½ [3]: 144 s
27	15	280	0.00442	15800	156	16	11	78.7	0.00121	15300		37.8	0.00116	30800					bsAb21237D (bispecific antibody, V domains shown, common light chain; also called H4H21237D) VH 1: EVQLVESGGGLVQPGGSLRLSCAASGFTFSNYGMTWVRQAPGKGLEWVSAITGGGGSTYYSNSVKGRFTISRDNSKNTVYLRMNSVRAEDTAVYYCAKYKWNFVDDWGQGTTVTVSS VH 2: QVQLVESGGGLVKPGGSLRLSCAASGFTFSDYYMTWIRQTPGKGLDWVSYISSSGTNKYNADSVKGRFTISRDNAKNSLYLQMNSLRAEDTAVYYCVRDPPWGMDVWGQGTTVTVSS VL: not shown	Kd [1]: 151 nM; koff [1]: 0.00424 s⁻¹; kon [1]: 28100 M⁻¹ s⁻¹; t½ [1]: 162 s
															6	6	3	2	bsAb19139D (bispecific antibody, V domains shown, LEPR x GP130 bispecific with common light chain) VH 1: QVQLVESGGGVVQPGRSLRLSCTASGFTFSSYAMYWVRQAPGKGLEWVSVIYYDGSYKYYADSVKGRFTISRDNSKNTLYLQMDSLRAEDTAVYYCASYNWNYWYFDFWGRGTLVTVSS VH 2: QVQLVESGGGVVQPGGSLRLSCAASGFTFSTYDIHWVRQAPGKGLEWVAVISFDGSNRNYGDSVKGRFTISRDNSDNTLFLEMNNLRFEDTAVYYCAKEGYGVDFQHWGQGTLVTVSS VL: not shown	binding result [7]: no binding (tested: 100 nM); binding result [8]: no binding (tested: 100 nM)
															23	20	19	14	bsAb19140D (bispecific antibody, V domains shown, LEPR x GP130 bispecific with common light chain) VH 1: QVQLVESGGGVVQPGRSLRLSCTASGFTFSSYAMYWVRQAPGKGLEWVSVIYYDGSYKYYADSVKGRFTISRDNSKNTLYLQMDSLRAEDTAVYYCASYNWNYWYFDFWGRGTLVTVSS VH 2: QVQLQESGPGLVKPSETLSLTCTVSGGSISNYYWTWIRQPPGKGLEWIGHISNSGTTNYNPSLKSRVTISVDTSKNQFSLKLTSVTAADTAVYYCARLPLGIAAVDTDYYYYFGMDVWGQGTTVTVSS VL: not shown	Kd [5]: 105 nM; koff [5]: 0.0477 s⁻¹; kon [5]: 455000 M⁻¹ s⁻¹; t½ [5]: 12 s; Kd [6]: 136 nM; koff [6]: 0.0546 s⁻¹; kon [6]: 402000 M⁻¹ s⁻¹; t½ [6]: 12 s; Kd [7]: 144 nM; koff [7]: 0.12 s⁻¹; kon [7]: 829000 M⁻¹ s⁻¹; t½ [7]: 6 s; Kd [8]: 183 nM; koff [8]: 0.146 s⁻¹; kon [8]: 797000 M⁻¹ s⁻¹; t½ [8]: 6 s
																5		3	bsAb19147D (bispecific antibody, V domains shown, LEPR x GP130 bispecific with common light chain) VH 1: QVQLVESGGGVVQPGRSLRLSCTASGFTFSSYAMYWVRQAPGKGLEWVSVIYYDGSYKYYADSVKGRFTISRDNSKNTLYLQMDSLRAEDTAVYYCASYNWNYWYFDFWGRGTLVTVSS VH 2: EVQLVESGGGLVQPGGSLRLSCTASGFTFSNYAIFWVRQAPGKGLEYVSGISNNGVTKYYADSVRDRFTISRDNSRNTVSIQMDSLRTEDMAVYYCARENWGSDDGFDIWGQGTMVTVSS VL: not shown	binding result [8]: no binding (tested: 100 nM)
